Data on 15 substances can be found in patent US20250073302A1, “CYCLIC PEPTIDES AS PROTEASOME STIMULATORS” (Purdue Research Foundation, priority 2023, published 2025).

Non-standard residues stand in square brackets, D forms with d. dBpa = N[C@H](Cc1ccc(C(=O)c2ccccc2)cc1)C(=O)O; dPhe(3,4-F2) = N[C@H](Cc1ccc(F)c(F)c1)C(=O)O; dPhe(3-F) = N[C@H](Cc1cccc(F)c1)C(=O)O; dPhe(4-F) = N[C@H](Cc1ccc(F)cc1)C(=O)O

The test has as its target T1, 20S CP.
T1 construct: purchased South Bay
The test can be described thus: TAS-1 biochemical assay (20S CP stimulation). Particulars: TAS-1 assay. Here is the method: Each compound was initially tested at 10 μM. Each well contained […] of 11.4 μM TAS-1 solution in Tris HCl (50 mM, pH 7.4) along with 5 nM of 20 sCP (South Bay). 1 μL of the test compound, control, or DMSO was added to the desired well to obtain a final DMSO concentration of 2%, with the total volume being 50 μL. Compounds were tested in three replicates that each had technical triplicates. The fluorescence was recorded using a SynergyNeo 2, where the excitation and emission was set to 335 nm and 493 nm. The plate reader was heated to 37° C. The fluorescence was recorded every 90 seconds over a 1-hour period. A simple linear regression was performed on the data plotted against time to obtain the rate of hydrolysis of TAS-1 by the 20S CP. The data was then normalized against DMSO to get the percent stimulation.
As to “KLFFRA [SEQ ID NO: 7] (cyclo(K[dL]F[dF]R[dA]); SMILES CC(C)C[C@H]1NC(=O)[C@H](CCCCN)NC(=O)[C@@H](C)NC(=O)[C@H](CCCNC(=N)N)NC(=O)[C@@H](Cc2ccccc2)NC(=O)[C@H](Cc2ccccc2)NC1=O) [CyPPS7, cyclic peptide; AA1 Lys, AA2 D-Leu, AA3 Phe, AA4 D-Phe, AA5 Arg, AA6 D-Ala]”, the “20S CP stimulatory activity (in words, SAR compared to CyPPS1)” value is listed as “decreased activity”.
“TAFFRA [SEQ ID NO: 3] (cyclo(T[dA]F[dF]R[dA]); SMILES C[C@H]1NC(=O)[C@H](CCCNC(=N)N)NC(=O)[C@@H](Cc2ccccc2)NC(=O)[C@H](Cc2ccccc2)NC(=O)[C@@H](C)NC(=O)[C@H]([C@@H](C)O)NC1=O) [CyPPS3, cyclic peptide; AA1 Thr, AA2 D-Ala, AA3 Phe, AA4 D-Phe, AA5 Arg, AA6 D-Ala]”: the “20S CP stimulatory activity (in words, SAR compared to CyPPS1)” value is reported as “greatest loss of stimulatory activity”.
Take “TDFFRA [SEQ ID NO: 10] (cyclo(T[dD]F[dF]R[dA]); SMILES C[C@H]1NC(=O)[C@H](CCCNC(=N)N)NC(=O)[C@@H](Cc2ccccc2)NC(=O)[C@H](Cc2ccccc2)NC(=O)[C@@H](CC(=O)O)NC(=O)[C@H]([C@@H](C)O)NC1=O) [CyPPS10, cyclic peptide; AA1 Thr, AA2 D-Asp, AA3 Phe, AA4 D-Phe, AA5 Arg, AA6 D-Ala]”: the “20S CP stimulatory activity (in words, SAR compared to CyPPS1)” value is “decreased activity”.
As for “TIFFRA [SEQ ID NO: 12] (cyclo(T[dI]F[dF]R[dA]); SMILES CC[C@@H](C)[C@H]1NC(=O)[C@H]([C@@H](C)O)NC(=O)[C@@H](C)NC(=O)[C@H](CCCNC(=N)N)NC(=O)[C@@H](Cc2ccccc2)NC(=O)[C@H](Cc2ccccc2)NC1=O) [CyPPS12, cyclic peptide; AA1 Thr, AA2 D-Ile, AA3 Phe, AA4 D-Phe, AA5 Arg, AA6 D-Ala]”, the entry is “lack of activity”; as for “TKFFRA [SEQ ID NO: 11] (cyclo(T[dK]F[dF]R[dA]); SMILES C[C@H]1NC(=O)[C@H](CCCNC(=N)N)NC(=O)[C@@H](Cc2ccccc2)NC(=O)[C@H](Cc2ccccc2)NC(=O)[C@@H](CCCCN)NC(=O)[C@H]([C@@H](C)O)NC1=O) [CyPPS11, cyclic peptide; AA1 Thr, AA2 D-Lys, AA3 Phe, AA4 D-Phe, AA5 Arg, AA6 D-Ala]”, “decreased activity”; as for “TLFARA [SEQ ID NO: 5] (cyclo(T[dL]F[dA]R[dA]); SMILES CC(C)C[C@H]1NC(=O)[C@H]([C@@H](C)O)NC(=O)[C@@H](C)NC(=O)[C@H](CCCNC(=N)N)NC(=O)[C@@H](C)NC(=O)[C@H](Cc2ccccc2)NC1=O) [CyPPS5, cyclic peptide; AA1 Thr, AA2 D-Leu, AA3 Phe, AA4 D-Ala, AA5 Arg, AA6 D-Ala]”, “greatest loss of stimulatory activity”.
As to “TLFFAR [SEQ ID NO: 6] (cyclo(T[dL]F[dF]A[dR]); SMILES CC(C)C[C@H]1NC(=O)[C@H]([C@@H](C)O)NC(=O)[C@@H](CCCNC(=N)N)NC(=O)[C@H](C)NC(=O)[C@@H](Cc2ccccc2)NC(=O)[C@H](Cc2ccccc2)NC1=O) [CyPPS6, cyclic peptide; AA1 Thr, AA2 D-Leu, AA3 Phe, AA4 D-Phe, AA5 Ala, AA6 D-Arg]”, the “20S CP stimulatory activity (in words, SAR compared to CyPPS1)” value is “stimulatory activity was preserved”.
For the substance “TLFFRS [SEQ ID NO: 22] (cyclo(T[dL]F[dF]R[dS]); SMILES CC(C)C[C@H]1NC(=O)[C@H]([C@@H](C)O)NC(=O)[C@@H](CO)NC(=O)[C@H](CCCNC(=N)N)NC(=O)[C@@H](Cc2ccccc2)NC(=O)[C@H](Cc2ccccc2)NC1=O) [CyPPS22, cyclic peptide; AA1 Thr, AA2 D-Leu, AA3 Phe, AA4 D-Phe, AA5 Arg, AA6 D-Ser]”, the “20S CP stimulatory activity (in words, SAR compared to CyPPS1)” value is reported as “maintained stimulatory activity”.
For the substance “TLFXRA [SEQ ID NO: 18] (cyclo(T[dL]F[dPhe(4-F)]R[dA]); SMILES CC(C)C[C@H]1NC(=O)[C@H]([C@@H](C)O)NC(=O)[C@@H](C)NC(=O)[C@H](CCCNC(=N)N)NC(=O)[C@@H](Cc2ccc(F)cc2)NC(=O)[C@H](Cc2ccccc2)NC1=O) [CyPPS18, cyclic peptide; AA1 Thr, AA2 D-Leu, AA3 Phe, AA4 D-Phe (4F), AA5 Arg, AA6 D-Ala]”, the “20S CP stimulatory activity (in words, SAR compared to CyPPS1)” value is “decreased activity”.
As for “TLFXRA [SEQ ID NO: 19] (cyclo(T[dL]F[dPhe(3-F)]R[dA]); SMILES CC(C)C[C@H]1NC(=O)[C@H]([C@@H](C)O)NC(=O)[C@@H](C)NC(=O)[C@H](CCCNC(=N)N)NC(=O)[C@@H](Cc2cccc(F)c2)NC(=O)[C@H](Cc2ccccc2)NC1=O) [CyPPS19, cyclic peptide; AA1 Thr, AA2 D-Leu, AA3 Phe, AA4 D-Phe (3F), AA5 Arg, AA6 D-Ala]”, the entry is “retained activity”; as for “TLFXRA [SEQ ID NO: 20] (cyclo(T[dL]F[dPhe(3,4-F2)]R[dA]); SMILES CC(C)C[C@H]1NC(=O)[C@H]([C@@H](C)O)NC(=O)[C@@H](C)NC(=O)[C@H](CCCNC(=N)N)NC(=O)[C@@H](Cc2ccc(F)c(F)c2)NC(=O)[C@H](Cc2ccccc2)NC1=O) [CyPPS20, cyclic peptide; AA1 Thr, AA2 D-Leu, AA3 Phe, AA4 D-Phe (3, 4F), AA5 Arg, AA6 D-Ala]”, “retained activity”; as for “TLFXRA [SEQ ID NO: 21] (cyclo(T[dL]F[dBpa]R[dA]); SMILES CC(C)C[C@H]1NC(=O)[C@H]([C@@H](C)O)NC(=O)[C@@H](C)NC(=O)[C@H](CCCNC(=N)N)NC(=O)[C@@H](Cc2ccc(C(=O)c3ccccc3)cc2)NC(=O)[C@H](Cc2ccccc2)NC1=O) [CyPPS21, cyclic peptide; AA1 Thr, AA2 D-Leu, AA3 Phe, AA4 D-BPA, AA5 Arg, AA6 D-Ala]”, “stimulatory activity was maintained”.
The same measure for “TLFYRA [SEQ ID NO: 17] (cyclo(T[dL]F[dY]R[dA]); SMILES CC(C)C[C@H]1NC(=O)[C@H]([C@@H](C)O)NC(=O)[C@@H](C)NC(=O)[C@H](CCCNC(=N)N)NC(=O)[C@@H](Cc2ccc(O)cc2)NC(=O)[C@H](Cc2ccccc2)NC1=O) [CyPPS17, cyclic peptide; AA1 Thr, AA2 D-Leu, AA3 Phe, AA4 D-Tyr, AA5 Arg, AA6 D-Ala]”: “decline in stimulatory activity”; for “TLYFRA [SEQ ID NO: 16] (cyclo(T[dL]Y[dF]R[dA]); SMILES CC(C)C[C@H]1NC(=O)[C@H]([C@@H](C)O)NC(=O)[C@@H](C)NC(=O)[C@H](CCCNC(=N)N)NC(=O)[C@@H](Cc2ccccc2)NC(=O)[C@H](Cc2ccc(O)cc2)NC1=O) [CyPPS16, cyclic peptide; AA1 Thr, AA2 D-Leu, AA3 Tyr, AA4 D-Phe, AA5 Arg, AA6 D-Ala]”: “decline in stimulatory activity”; for “VLFFRA [SEQ ID NO: 9] (cyclo(V[dL]F[dF]R[dA]); SMILES CC(C)C[C@H]1NC(=O)[C@H](C(C)C)NC(=O)[C@@H](C)NC(=O)[C@H](CCCNC(=N)N)NC(=O)[C@@H](Cc2ccccc2)NC(=O)[C@H](Cc2ccccc2)NC1=O) [CyPPS9, cyclic peptide; AA1 Val, AA2 D-Leu, AA3 Phe, AA4 D-Phe, AA5 Arg, AA6 D-Ala]”: “maintained stimulatory activity”.
